We go through three substances from publication PMC6694677.

The target in test [1] is HER2 on SK-BR-3 cells (human (endogenous in SK-BR-3)) (UniProt P04626). Description: flow cytometry on cells; SK-BR-3 or Jurkat cells with serially diluted antibody, 1 h at room temperature; PE-conjugated anti-human IgG Fc as secondary antibody. On the technique in general: Flow cytometry measures light scatter and fluorescence of single cells or particles in a stream.
In test [2] the target is recombinant HER2 antigen (ectodomain of hHER2) (Homo sapiens) (UniProt P04626). Kind of test: SPR; ProteOn XPR36; HER2 and CD3 antigens amine-coupled on a GLC chip at 1000 RU; M802 (0 to 50 nM) and other antibodies injected; 1:1 L interaction model for HER2, two state interaction model for CD3. For orientation: SPR reads the build-up and loss of mass on a sensor chip optically.

Test [3] concerns the target recombinant CD3 antigen (ectodomain of hCD3) (human) (UniProt P07766). Described as above.
Test [4] has as its target recombinant HER2 antigen (ectodomain of hHER2) (Homo sapiens) (UniProt P04626). Kind of test: SPR; ProteOn XPR36, GLC chip; HER2 antigen immobilised by amine coupling at 1000 RU; antibodies (M802 0 to 50 nM) injected; 1:1 L interaction model; KD = Kd/Ka.
Test [5] has as its target recombinant CD3 antigen (ectodomain of hCD3) (human) (UniProt P07766). Kind of test: SPR; ProteOn XPR36, GLC chip; CD3 antigen immobilised by amine coupling at 1000 RU; antibodies (M802 0 to 50 nM) injected; Two state interaction model; KD = Kd/Ka.
For test [6], the target named is HER2 on SK-BR-3 cells (human (endogenous in SK-BR-3)) (UniProt P04626). Kind of test: FACS. To be noted: bispecific antibody.
Test [7] concerns the target CD3 on Jurkat cells (human (endogenous in Jurkat)) (UniProt P07766). Kind of test: FACS. To be noted: bispecific antibody.

Sequence of recombinant CD3 antigen (ectodomain of hCD3) (human) (P07766 23-126): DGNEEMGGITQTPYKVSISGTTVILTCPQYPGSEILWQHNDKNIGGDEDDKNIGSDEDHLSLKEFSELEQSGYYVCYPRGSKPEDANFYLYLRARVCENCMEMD
Sequence of CD3 on Jurkat cells (human (endogenous in Jurkat)) (P07766 23-207, chain 1 of 3): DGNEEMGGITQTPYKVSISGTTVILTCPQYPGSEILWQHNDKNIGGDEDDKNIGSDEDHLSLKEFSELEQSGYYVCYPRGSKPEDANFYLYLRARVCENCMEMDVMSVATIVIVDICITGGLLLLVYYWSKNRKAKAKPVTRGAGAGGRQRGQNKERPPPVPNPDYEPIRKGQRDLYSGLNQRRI
Sequence of CD3 on Jurkat cells (human (endogenous in Jurkat)) (P04234 22-171, chain 2 of 3, further chain): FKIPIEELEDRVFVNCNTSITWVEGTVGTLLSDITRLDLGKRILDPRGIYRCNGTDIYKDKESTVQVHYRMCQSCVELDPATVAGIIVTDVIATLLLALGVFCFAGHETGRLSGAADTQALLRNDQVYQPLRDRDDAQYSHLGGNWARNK
Sequence of CD3 on Jurkat cells (human (endogenous in Jurkat)) (P09693 23-182, chain 3 of 3, further chain): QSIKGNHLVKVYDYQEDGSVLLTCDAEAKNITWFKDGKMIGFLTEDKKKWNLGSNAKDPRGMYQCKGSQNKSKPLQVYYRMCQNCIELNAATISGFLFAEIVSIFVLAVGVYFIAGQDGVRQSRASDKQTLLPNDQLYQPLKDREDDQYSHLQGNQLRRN

Broadly, the Kd is the equilibrium constant for the complex coming apart. Take “M802, anti-HER2/CD3 bispecific antibody (MSBODY format: monovalent unit against HER2 and single chain unit against CD3)”: the fold weaker affinity than Herceptin in test [1] worked out at 3 fold. Also, the Kd turned out to be 0.578 nM in test [2] and 71.2 nM in test [3].

Usually koff stands for the rate constant with which the complex falls apart. What is called kon is a measure of how fast the partners come together. With “M802, anti-HER2/CD3 bispecific antibody (monovalent unit against HER2 and single chain unit against CD3)”, in test [4], the koff was determined as 0.000248 s⁻¹ and the kon was found to be 429000 M⁻¹ s⁻¹. In test [5], the off-rate constant (koff) worked out at 0.0245 s⁻¹ and the kon was 345000 M⁻¹ s⁻¹.

Turning to “M802, anti-HER2/CD3 bispecific antibody (MSBODY format: monovalent unit against HER2 and single chain unit against CD3) (from UniProt P01857)”, the values for the Kd in test [6] and in test [7] were 11.7 nM and 187 nM, respectively.
